Values quoted from earlier work as cited in article PMC5010500 (Journal of molecular biology, 2016).

Target: Keap1 Kelch domain (Homo sapiens) (UniProt Q14145)
Assay: ITC
Settings: cited from earlier work

Chain of Keap1 Kelch domain (Homo sapiens) (Q14145 321-609): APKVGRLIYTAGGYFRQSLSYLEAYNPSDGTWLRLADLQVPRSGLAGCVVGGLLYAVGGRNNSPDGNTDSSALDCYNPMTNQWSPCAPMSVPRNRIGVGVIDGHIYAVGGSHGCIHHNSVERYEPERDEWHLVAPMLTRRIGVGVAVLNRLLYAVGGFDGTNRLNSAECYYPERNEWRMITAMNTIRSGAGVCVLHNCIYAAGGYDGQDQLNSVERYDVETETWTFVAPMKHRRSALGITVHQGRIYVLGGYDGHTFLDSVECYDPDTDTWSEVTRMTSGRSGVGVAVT
Chain of mVP24 (P35256 whole entry): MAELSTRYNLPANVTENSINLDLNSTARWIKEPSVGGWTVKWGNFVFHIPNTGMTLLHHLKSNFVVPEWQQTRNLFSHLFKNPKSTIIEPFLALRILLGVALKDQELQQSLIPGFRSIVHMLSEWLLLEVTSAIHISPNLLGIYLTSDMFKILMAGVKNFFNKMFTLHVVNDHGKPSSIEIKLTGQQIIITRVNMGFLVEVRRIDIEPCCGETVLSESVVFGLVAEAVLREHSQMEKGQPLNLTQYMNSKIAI

In the case of mVP24 (from UniProt P35256), the Kd is given as 160 nM.
